# Test results: publication PMC10696396, “HilE represses the activity of the Salmonella virulence regulator HilD via a mechanism distinct from that of intestinal long-chain fatty acids” (The Journal of Biological Chemistry, 2023)
# Experiments:
# [1] = biological target: EYFP-HilD (Salmonella enterica) (UniProt P0CL08); assay: MST; HilE titrated against EYFP-HilD preincubated with 1% DMSO; MST on-time 1.5 s, 25 °C
# [2] = biological target: HilD (full-length, unfused) (Salmonella enterica) (UniProt P0CL08); assay: SEC-MALS; Superdex 75 Increase 10/300 GL, 50 mM NaH2PO4 pH 7.0, 200 mM NaCl, 0.5 ml/min; protein concentrations of 100 μM (Fig. 4, D and E)
# [3] = biological target: EYFP-HilD (Salmonella enterica) (UniProt P0CL08); assay: MST; HilE titrated against 50 nM EYFP-HilD; 25 °C, 0.05% Pluronic F-127, MST on-time 1.5 s
substance,measurement,setting,value
HilE (natural protein),Kd,[1],1630 nM
same,stoichiometry N,[2],1
same,Kd,[3],1820 nM
